Reference: the DeepSol protein solubility set

Assay: soluble on expression in E. coli; label from the status in PepcDB or PDB records

Sequence | soluble on expression in E. coli
MSLNSEAKSRIACDIDFDRDGRQAGYARAPLSRNNSGWGTVEIPITVVKNGSGPTVLLTGGVHGDEYEGQIAISDLARRLRPEEVQGRVIMLPAVNMPAIQSDTRLSPVDGRDINRCFPGDPRGTFSQMLAHFLDSVILPMADISVDMHTAGHSYDSTPSTNMHYLADPALRARTLAAAEAFGAPHNVVFGGVDEGSTFTSCVERRGIVSLGTELGGWGRVNIEGVRIGKRGILNVLKHMGVIEGTPETAQRGGAAGTRHMMVREADAYVMAPRTGLFEPTHYVGEEVRTGETAGWIHFVEDVDTAPLELLYRRDGIVWFGAGPGRVTRGDAVAVVMEDYNDTWPQEGHHHHHH | soluble
MGSDKIHHHHHHMSPLAYSVANVNLESSHPTGALSVNLLSGRDVRRWDDFVSCCREATFFHRAGWQTVIERAFGHKTWFLYAECEGEIQGVLPLAEINSRLFGHSLSSLPFCVYGGIAADSQTVRDALDRSAQKLAQELQVDYLEYRNLKPHHADWHGKDLYVTFRKEIASEIEQNMSAIPRKQRAMVRKGIKAGLESVVDQDIERFFSAYSASVHRLGTPVFSRKYFRLLKEVFAEDCELMIIVKDNRTISAVMSFYFRDEVLPYYGGGTGEAREVAGNDFMYWELMRRACEKGCKVFDFGRSKRGSGSFDFKKNWGFEPQPLHYEYQLHQAKEVPDHNPLNPRYQIFIKAWQKLPLGLANLVGPHIVRNLG | not soluble
MGSDKIHHHHHHAICLRDDIGNYVIKWETDPVMEGIVKMTVSDNPDLFTNESPIIYANIKDGVATYITNDNISRKYFRLSFNDKYPRIIGARSAVMDSVQNFRDLGGYTSTNGKTVKWGKVFRSGELSSLSEWDSIRLDNLGIKTIIDLRTNQETLTAPIKYTKANILQIPISVGKIADAPQRVIEGRMRKGDAGVYMEDEYLQFVTDNTDQFAKVLEQFQNEDNYPILISCSYGKDRTGFLTAMLLAALDIPRDAIMEDYLTSNQYIDTSHLADIVKHLSTDAQESITVFLTANEGLMDLAFHKIKKEYGSTEKYLSKGLRLTDKKRERLKDILLY | not soluble
MAGAMIEARGLVKRFVSGRIRRRVVEALKGVSFSVYEGEIYSFLGPNGAGKTTTVRILSTLLDPDGGEARVAGFDVVKERWEVRKRIGVMLSVERGFYWKLTGRENLYYFGRIYGIPQGELKSRIKEVLDLVGLTDLGGADKPFEEMSLGMKARLGLARVLLKDPEVLILDEPTLGLDPASARTIRGVIRSLASEGRTIFITTHNMVEAEMISDRVGIIIGGRIAMEGTPDELKRRVFSSINLEFRVKASGHAAKKFFYDVKGEYGNRIVGGVTFSDGILTFRVSVNRDEPAEPIIDRITRLAYQYRFKILEIKALEPSLEDVFVAVSESGEARSGRVKGSIAQRLEHHHHHH | soluble
MRNELNSNEYNLMASRQSRKILTGTLAAMENVKIGQDENVDCGVVFYDEFKILIPIREMNVSREDKRVIRSMIGAEIDFIVMEFDDENRTAIASRKEAMELRKNLELKKHKVGEKIFVRVTSVGRNNCRVDCYGIEYRVPINEIDYGYIDKVDKYVQVGDVVPAIIKELDIDNNIVVVSIKEAKEDPYLGIVKSLNKGGEYLGVVTGIKDYGIFLTIRKGVNCLCPFPNWANFSPAVGEKFVVRIKSINYDEKKINANLMRPINQRNKYNPTWGLGLEHHHHHH | soluble
MSLNKPLADRMRPIKLEDVVGQEHILSKNQILNKTLQAGHITNMIFYGPPGVGKTTVANIISNMTNKKLYKLNATNASIKDIQRIVAELDSFMTMNGVLLYLDEIQNFNKKQQQSLLEYIENGKITLIASTTENPYHYIYNAILSRSTVFEFKLLTKSNVIEGLKQVIKRINDEGKTLVEYEEEALDYIATASNGDLRRAMNALELAMYAAESENKEQVFLTIHIAQESTQKKVISYDKFGDQHYDILSAFQKSIRGTDPDAAIHYLARLVKAGDLNSICRRLLVIASEDIGLAYPTAITIVKSCVDAAMQVGFPEARINLAQATLVLATAPKSNSVIEAMDRALADLDQKDIGEIPTSLKDAHYKGASDLGRGVTYKYPHHYENNYIQQQYLPENIKNEKYYGSQNNKMEQRIFSYLEQLKKEGHHHHHH | not soluble
MGSDKIHHHHHHMQATTATPHDIVFLFDCDNTLLDNDHVLADLRAHMMREFGAQNSARYWEIFETLRTELGYADYLGALQRYRLEQPRDTRLLLMSSFLIDYPFASRVYPGALNALRHLGARGPTVILSDGDVVFQPRKIARSGLWDEVEGRVLIYIHKELMLDQVMECYPARHYVMVDDKLRILAAMKKAWGARLTTVFPRQGHYAFDPKEISSHPPADVTVERIGDLVEMDAEWLLAEKR | not soluble
MNIIILAGGEGKRMGGVDKAAVAVDGRTLLDILLSQLDPEDDVVVVSPAIIDGITTVCEEPPLGGPVAGIEAGLNSFEHAHEFTAILAVDAPYSAAMLPLLQAQIGKADVAVTLAADGWVQPLCALWRSGSLEAVIHSLGETRNRPAKALLKQAGHIVEVGGDGTEKDYDTVAELEVLGNVTLPKAHLEHHHHHH | not soluble
MGHHHHHHSHMHSLATAAPVPTTLAQVDREKIYQWINELSSPETRENALLELSKKRESVPDLAPMLWHSFGTIAALLQEIVNIYPSINPPTLTAHQSNRVCNALALLQCVASHPETRSAFLAAHIPLFLYPFLHTVSKTRPFEYLRLTSLGVTGALVKTDEQEVINFLLTTEIIPLCLRIMESGSELSKTVATFILQKILLDDTGLAYICQTYERFSHVAMILGKMVLQLSKEPSARLLKHVVRCYLRLSDNPRFSDLTFCWSSFQRK | not soluble
MAHHHHHHMKALVFLEVEESATGSNTARSTATQMHALFAGLVEMSMHVYLEKDASLAAASGAAEARVLLLSTVVKDLLSVREQSRSSPAQYVRYVQRMLIARTPVVPYITTQLLQDCQSQTALLTTSHGPTVLGAKRGDPAECFSVVHPRRYR | not soluble
MGSDKIHHHHHHMNNMEIWVVDDDRDYCELIVEMLQDEFKVSPFYGAADFRVALQTQKPDLLLMDINLPDTDGITLCRELQASNQEVAVLFVSGMNTLEERLKAYEVNAVDFIAKPFELKELLAKVHSVAHYVMKQRELIQAESVSRNMAFQSMTESSQYGCVLQFFRQCFLCNDHQTLADAFFDLMQQLNLNTCLEIRGENVEYFAPRHAAISPIESNILELLDKHGRLYDFGCRTICNDKHVSFLIKNMPINDEVLYGRLRDIIAVVVEGLEARVLDISRQQTLTQVFLDIESLIGDINVATLEHDEKFSAALINMTTEIRGSFHVLDMTIEQEDYFTALIERNLKEVKSASEAFTRLQSALGKVMDVLGGSVS | not soluble
MKAYIQVKQVGKRKCSIEKMPIDFPTPPASVQELIEAVVCWQVKEYNERLQQSEMLKYLTCEEMEDKAAAGKVGFEANYNGRPAVETEAIINALQSYEDGIFRIFLDDAELGELSSSVQLKEESTLTFIRLAMLSGRLW | not soluble
MGSDKIHHHHHHMSVCARPERPWDERDRERFMHRNKVVSREDWFQAHKAHLAREKELTRLRERVAAERRELPWLKVRKDYVFETEQGPKKLAELFANRSQLIVYHFVFAPGSTHHCESCAFVADHMDGANRHLRHHDVSLVTISRAPLVELLPYKQRMGWTFDWVSSYASDFNFDMQVSFTDRQIASGEAVYNFETPVLTSKDLPGTTVFYKGETGDIFLTFMSRARGSEQFIGAYQYLDIAPKGRDETGPYGTFMDWVRLHDEYGNRSQRDDVCP | not soluble
MSALDCPAGTVLFRAGQDCPGFLRLDEGSIRVTLTAANGREVVLYRVRPGDVCLQTFACLTEGRSYSAEGVAETRVRGHLMSHADFRTALARDEAFRTEVMQAVARRFADFEHLVEDVALTGFDTRLARVLLRLAKGDTVAATHEALAAETASGRAFVSRRLAEFARQGLVELARGRVTLCDRSGLERIAAEER | not soluble
MQQQGWRTYLYDAEQPYTPVASVTGKGESRQVWYYHTDVTGTPQEVTAADGTLVWAGYIKGFGENAADISNSGAYFHQPLRLPGQYFDDETGLHYNLFRYYAPECGRFVSQDPIGLAGGLNLYQYAPNPIRWIDPLGLAILEHQSNFDAARRTGFENAGMTNPEDVTFSKVDPKTGTVVEFKGPNGAKVAYDAPHADMDVTAGHDKPHVGWQSAGKRGSGGANRGNITYDGPQHPHRSDSKGDDKCLEHHHHHH | not soluble
RCFRLEQTQKDARVVSVHAAMSGRSTIGEQQGHSISWRRRLSRANTWPSAAKAQAYITNVATPALTQVAEELCRKGINARLVTTKTQAVEGLDLIVEMGSEQNFRYQLFPVCNPVPQFTRKANASEKETYYRLEVCDLTGSLGYDIYGYTQEQLIDNVLDLYERHLEFLHMHSDLPGSSDLSDGATPPLFS | not soluble
MSLDAPYFSPRRLGHVNLIVRDTDASMRFYQDVVGFEEVYRVPAIGGGFLSNGNTHHDVGMVQSSGPSGKGRPPGLNHLAFELETEVALVEGYERSRQDGLAFERTLDHDIAHSAYCADPDGNSCELYADVVREWRTARTGEVTKPKPAWWPGKTPPNPHRNYHAEPQLRQVAHAAFHPLRTQHATLVVADLRESIAFYTRRIGLALQAQGDGYALLGGRCGRRDVALVQARGQLSPGYHHVGLEVADAGELLQAAQRWREQGGQVERLIEHPLRTAVYITDPDGLLLQFFVDHAADHAAWRHLDREQALWIVEGHHHHHH | not soluble
MSLTDLIVTNGAVLTMDPARPEAEAVAVADGRITAVGSRAEIERLAGPRTDMIDAGGGTVLPGFVESHLHLVLGGAELAHLQLAGVHGVEALTRAAQSFAAAHPDRPLLMAQGGDYGLLDRPMTRQDLDAILPDRPFAITAPDHHTVWANTAALRAAGLIEGASMPHGHEVVMGADGRATGELREFEAFAPVIALGGEARLNLGIATGEEPSPWPDAAERAIDRAKIARGLAHCAAHGITSMVNMDGNRYTLELLRELQRAGGLTARIRVPFHFKPHMALADLARAEAMTRDFDDDWLACNFVKMFMDGVLDSGTAYRLDDYPDAPGWRSEPLFEPARFAEIATAVDRRGLQIAVHAIGCGAVRTTLDGYAAARAANGARDSRHRIEHIELIDRADIPRLAALGVVASLQPPHPPGAMDFPLQPTLDRIGRSRWPDAYLCRTLAEAGAPVVFASDWPVTDVSVLRGLQAALTRRPYEGAADERLTLAESLRAYTAGGAWANHRERLTGTLRAGLAADLAILDGRLEARAADSLGSLGVARTLCGGRTTHRREGHHHHHH | not soluble
MMRMKVKVVVNGKEYEVEVEEVMPGKFRVTLEGETYEVETSAGFVTSPKQVQVPTPAPTPAPAPTPTPAPAPSSKTVVSENVVSAPMPGKVLRVLVRVGDRVRVGQGLLVLEAMKMENEIPSPRDGVVKRILVKEGEAVDTGQPLIELG | soluble
MGSSHHHHHHSQDPMDYFNIKQNYYTGNFVQCLQEIEKFSKVTDNTLLFYKAKTLLALGQYQSQDPTSKLGKVLDLYVQFLDTKNIEELENLLKDKQNSPYELYLLATAQAILGDLDKSLETCVEGIDNDEAEGTTELLLLAIEVALLNNNVSTASTIFDNYTNAIEDTVSGDNEMILNLAESYIKFATNKETATSNFYYYEELSQTFPTWKTQLGLLNLHLQQRNIAEAQGIVELLLSDYYSVEQKENAVLYKPTFLANQITLALMQGLDTEDLTNQLVKLDHEHAFIKHHQEIDAKFDELVRKYDTSN | soluble
MGSDKIHHHHHHMSRAPDTWILTADCPSMLGTVDVVTRYLFEQRCYVTEHHSFDDRQSGRFFIRVEFRQPDDFDEAGFRAGLAERSEAFGMAFELTAPNHRPKVVIMVSKADHCLNDLLYRQRIGQLGMDVVAVVSNHPDLEPLAHWHKIPYYHFALDPKDKPGQERKVLQVIEETGAELVILARYMQVLSPELCRRLDGWAINIHHSLLPGFKGAKPYHQAYNKGVKMVGATAHYINNDLDEGPIIAQGVEVVDHSHYPEDLIAKGRDIECLTLARAVGYHIERRVFLNANRTVVL | not soluble
